From PMC4534855 (2015)

B1: Flag-eIF2β, wild type [S. cerevisiae] / eIF2Bε in yeast whole-cell extracts [yeast (endogenous in yeast whole-cell extracts)] (parent)
chain 1: MSSDLAAELGFDPALKKKKKTKKVIPDDFDAAVNGKENGSGDDLFAGLKKKKKKSKSVSADAEAEKEPTDDIAEALGELSLKKKKKKTKDSSVDAFEKELAKAGLDNVDAESKEGTPSANSSIQQEVGLPYSELLSRFFNILRTNNPELAGDRSGPKFRIPPPVCLRDGKKTIFSNIQDIAEKLHRSPEHLIQYLFAELGTSGSVDGQKRLVIKGKFQSKQMENVLRRYILEYVTCKTCKSINTELKREQSNRLFFMVCKSCGSTRSVSSIKTGFQATVGKRRRM
chain 2: MAGKKGQKKSGLGNHGKNSDMDVEDRLQAVVLTDSYETRFMPLTAVKPRCLLPLANVPLIEYTLEFLAKAGVHEVFLICSSHANQINDYIENSKWNLPWSPFKITTIMSPEARCTGDVMRDLDNRGIITGDFILVSGDVLTNIDFSKMLEFHKKMHLQDKDHISTMCLSKASTYPKTRTIEPAAFVLDKSTSRCIYYQDLPLPSSREKTSIQIDPELLDNVDEFVIRNDLIDCRIDICTSHVPLIFQENFDYQSLRTDFVKGVISSDILGKHIYAYLTDEYAVRVESWQTYDTISQDFLGRWCYPLVLDSNIQDDQTYSYESRHIYKEKDVVLAQSCKIGKCTAIGSGTKIGEGTKIENSVIGRNCQIGENIRIKNSFIWDDCIIGNNSIIDHSLIASNATLGSNVRLNDGCIIGFNVKIDDNMDLDRNTKISASPLKNAGSRMYDNESNEQFDQDLDDQTLAVSIVGDKGVGYIYESEVSDDEDSSTEACKEINTLSNQLDELYLSDDSISSATKKTKKRRTMSVNSIYTDREEIDSEFEDEDFEKEGIATVERAMENNHDLDTALLELNTLRMSMNVTYHEVRIATITALLRRVYHFIATQTLGPKDAVVKVFNQWGLLFKRQAFDEEEYIDLMNIIMEKIVEQSFDKPDLILFSALVSLYDNDIIEEDVIYKWWDNVSTDPRYDEVKKLTVKWVEWLQNADEESSSEEE
B2: Flag-eIF2β, wild type [S. cerevisiae] / eIF2α in yeast whole-cell extracts [yeast (endogenous in yeast whole-cell extracts)] (parent)
chain 1: B1 chain 1
chain 2: MSTSHCRFYENKYPEIDDIVMVNVQQIAEMGAYVKLLEYDNIEGMILLSELSRRRIRSIQKLIRVGKNDVAVVLRVDKEKGYIDLSKRRVSSEDIIKCEEKYQKSKTVHSILRYCAEKFQIPLEELYKTIAWPLSRKFGHAYEAFKLSIIDETVWEGIEPPSKDVLDELKNYISKRLTPQAVKIRADVEVSCFSYEGIDAIKDALKSAEDMSTEQMQVKVKLVAAPLYVLTTQALDKQKGIEQLESAIEKITEVITKYGGVCNITMPPKAVTATEDAELQALLESKELDNRSDSEDDEDESDDE

Variants of: B1
Experiment: co-immunoprecipitation with FLAG affinity resin, quantified western
Conditions: three biological replicates, read off a plot
chain 1 MSSDLAAELGFDPALKKKKKTKKVIPDDFDAAVNGKENGSGDDLFAGLKKKKKKSKSVSADAEAEKEPTDDIAEALGELSLKKKKKKTKDSSVDAFEKELAKAGLDNVDAESKEGTPSANSSIQQEVGLPYSELLSRFFNILRTNNPELAGDRSGPKFRIPPPVCLRDGKKTIFSNIQDIAEKLHRSPEHLIQYLFAELGTSGSVDGQKRLVIKGKAQSKAMENVLRRYILEYVTCKTCKSINTELKREQSNRLFFMVCKSCGSTRSVSSIKTGFQATVGKRRRM [chain 1 F217A Q221A] was tested, and the response was 0.63 eIF2Bε:eIF2β.
With chain 1 MSSDLAAELGFDPALKKKKKTKKVIPDDFDAAVNGKENGSGDDLFAGLKKKKKKSKSVSADAEAEKEPTDDIAEALGELSLKKKKKKTKDSSVDAFEKELAKAGLDNVDAESKEGTPSANSSIQQEVGLPYSELLSRFFNILRTNNPELAGDRSGPKFRIPPPVCLRDGKKTIFSNIQDIAEKLHRSPEHLIQYLFAELGTAGSVDGQKRLVIAGKFQSKQMENVLRRYILEYVTCKTCKSINTELKREQSNRLFFMVCKSCGSTRSVSSIKTGFQATVGKRRRM [chain 1 S202A K214A] the response was 0.84 eIF2Bε:eIF2β.

Variants of: B2
Experiment: as above
Conditions: three biological replicates, read off a plot
With chain 1 MSSDLAAELGFDPALKKKKKTKKVIPDDFDAAVNGKENGSGDDLFAGLKKKKKKSKSVSADAEAEKEPTDDIAEALGELSLKKKKKKTKDSSVDAFEKELAKAGLDNVDAESKEGTPSANSSIQQEVGLPYSELLSRFFNILRTNNPELAGDRSGPKFRIPPPVCLRDGKKTIFSNIQDIAEKLHRSPEHLIQYLFAELGTAGSVDGQKRLVIAGKFQSKQMENVLRRYILEYVTCKTCKSINTELKREQSNRLFFMVCKSCGSTRSVSSIKTGFQATVGKRRRM [chain 1 S202A K214A] the response was 0.96 eIF2α:eIF2β.
chain 1 MSSDLAAELGFDPALKKKKKTKKVIPDDFDAAVNGKENGSGDDLFAGLKKKKKKSKSVSADAEAEKEPTDDIAEALGELSLKKKKKKTKDSSVDAFEKELAKAGLDNVDAESKEGTPSANSSIQQEVGLPYSELLSRFFNILRTNNPELAGDRSGPKFRIPPPVCLRDGKKTIFSNIQDIAEKLHRSPEHLIQYLFAELGTSGSVDGQKRLVIKGKAQSKAMENVLRRYILEYVTCKTCKSINTELKREQSNRLFFMVCKSCGSTRSVSSIKTGFQATVGKRRRM [chain 1 F217A Q221A] was tested, and the response was 0.94 eIF2α:eIF2β.
